B1: Sh3rf1, endogenous in murine DC2.4 cells (natural protein)
chain: MDESALLDLLECPVCLERLDASAKVLPCQHTFCKRCLLGIVGSRNELRCPECRTLVGSGVDELPSNILLVRLLDGIKQRPWKPGPGGGGGTTCTNTLRAQGSTVVNCGSKDLQSSQCGQQPRVQAWSPPVRGIPQLPCAKALYNYEGKEPGDLKFSKGDIIILRRQVDENWYHGEVSGVHGFFPTNFVQIIKPLPQPPPQCKALYDFEVKDKEADKDCLPFAKDDVLTVIRRVDENWAEGMLADKIGIFPISYVEFNSAAKQLIEWDKPPVPGVDTAECPSATAQSTSASKHPDTKKNTRKRHSFTSLTMANKSSQGSQNRHSMEISPPVLISSSNPTAAARISELSGLSCSAPSQVHISTTGLIVTPPPSSPVTTGPAFTFPSDVPYQAALGSMNPPLPPPPLLAATVLASTPSGATAAVAAAAAAAAAAGMGPRPVMGSSEQIAHLRPQTRPSVYVAIYPYTPRKEDELELRKGEMFLVFERCQDGWYKGTSMHTSKIGVFPGNYVAPVTRAVTNASQAKVSMSTAGQASRGVTMVSPSTAGGPTQKPQGNGVAGNPSVVPTAVVSAAHIQTSPQAKVLLHMSGQMTVNQARNAVRTVAAHSQERPTAAVTPIQVQNAACLGPASVGLPHHSLASQPLPPMAGPAAHGAAVSISRTNAPMACAAGASLASPNMTSAMLETEPSGRTVTILPGLPTSPESAASACGNSSAGKPDKDSKKEKKGLLKLLSGASTKRKPRVSPPASPTLDVELGAGEAPLQGAVGPELPLGGSHGRVGSCPTDGDGPVAAGTAALAQDAFHRKTSSLDSAVPIAPPPRQACSSLGPVMNEARPVVCERHRVVVSYPPQSEAELELKEGDIVFVHKKREDGWFKGTLQRNGKTGLFPGSFVENI
B2: Brk1 (Hspc300), endogenous in murine DC2.4 cells (natural protein)
chain: MAGQEDPVQREIHQDWANREYIEIITSSIKKISDFLNSFDMSCRSRLATLNEKLTALERRIEYIEARVTKGETLT
B3: Abi3, endogenous in murine DC2.4 cells (natural protein)
chain: MAELQQLQQLQEFDIPTGREALRGNHSALLRVANYCEDNYLQATDKRKALEETMAFTTQALASVAYQVGNLAGHTLRMLDLQGAALRQVEAKMSTLGQMVNMHMEKVARREIGTLATVVRLPSNQKVIPPESLPSLTPYHRKPLNFACLDDIGHGVKDLSTQLSRTGTLSRKSIKAPATPVSATLGRPPRIPEPVQLPAVPDGKLSAASSASSLASAGSAEGASGIPQSKGQVAPATPPPPPVAPVTPPPPPLSAEVFLPPPPLEVSQPPLEAELPLPPPPALEGDELGLLPPPPPGFGPDEPSWVPASYLEKVVTLYPYTRQKDNELSFSEGTVICVTRRYSDGWCEGVSSEGTGFFPGNYVEPSC
B4: Arhgef6, endogenous in murine DC2.4 cells (natural protein)
chain: MNPEERLVTWLISLGVLESPKKTVCDPEEFLKSSLKNGVVLCKLINRLLPGSVEKYCLEPQTEADCIDNINDFLKGCATLQVEVFEPDDLYSGANFSKVLNTLLAVNKATEDQLSERPCGRSSSLSAATSSQTNPQVAVPSTAPEQHSEEKAEMTENGSHQLIVKARFNFKQTNEDELSVCKGDIIYVTRVEEGGWWEGTLNGRTGWFPSNYVREIKPSERPLSPKAIKGFDTAPLTKNYYTVVLQNILDTEKEYAKELQSLLVTYLRPLQSNNNLSTVEFTCLLGNFEEVCTFQQTLCQALEECSKFPENQHKVGGCLLNLMPHFKSMYLAYCANHPSAVNVLTQHSDDLERFMENQGASSPGILILTTSLSKPFMRLEKYVTLLQELERHMEDTHPDHQDILKAIIAFKTLMGQCQDLRKRKQLELQILSEPIQAWEGDDIKTLGNVIFMSQVVMQHGACEEKEERYFLLFSSVLIMLSASPRMSGFMYQGKIPIAGMVVNRLDEIEGSDCMFEITGSTVERIVVHCNNNQDFQEWMEQLNRLTKGPTSCGSLSKTSSSSCSTHSSFSSTGQPRGPLEPPQIIKPWSLSCLRPAPPLRPSAALGYKERMSYILKESSKSPKTMKKFLHKRKTERKASEEEYVIRKSTAALEEDAQILKVIEAYCTSASFQQGTRKDSVPQVLLPEEEKLIIEETRSNGQTIIEEKSLVDTVYALKDEVKELKQENKKMKQCLEEELKSRKDLEKLVRKLLKQTDECIRSESSSKTSILQ
B5: Sorbs1 (Cap), endogenous in murine DC2.4 cells (natural protein)
chain: MSSECDVGSSKAVVNGLASGNHGPDKDMDPTKICTGKGTVTLRASSSYRGTPSSSPVSPQESPKHESKSGLEPEDPSADEWKLSSSADTNGNAQPSPLAAKGYRSVHPSLSADKPQGSPLLNEVSSSHIETDSQDFPPTSRPSSAYPSTTIVNPTIVLLQHNRDPASERRAGEQDPVPTPAELTSPGRASERRAKDASRRVVRSAQDLSDVSTDEVGIPLRNTERSKDWYKTMFKQIHKLNRDDDSDVHSPRYSFSDDTKSPLSVPRSKSEMNYIEGEKVVKRSATLPLPARSSSLKSSPERNDWEPLDKKVDTRKYRAEPKSIYEYQPGKSSVLTNEKMSRDISPEEIDLKNEPWYKFFSELEFGRPTNLEKDLSFCQAELEADLEKVETVNKSPSANSPQSSAVSPTPDITSEPPGYIYSSNFHAVKRESDGTPGGLASLENERQIYKSVLEGGDIPLQGLSGLKRPSSSASTKVDRKGGNAHMISSSSVHSRTFHTSNALGPGCKHKKPLSAAKACISEILPSKFKPRLSAPSALLQEQKSVLLPSEKAQSCENLCVSLNDSKRGLPLRVGGSIENLLMRSRRDYDSKSSSTMSLQEYGTSSRRPCPLSRKAGLHFSMFYRDMHQINRAGLSLGSISSSSVRDLASHFERSSLTLARGELGASQEGSEHIPKHTVSSRITAFEQLIQRSRSMPSLDFSGRLSKSPTPVLSRSGLTSARSAESLLESTKLRPREMDGMDSGGVYASPTCSNMADHALSFRSLVPSEPLSICSDELDHCSNVSNDSREGSGGSVHGDFPKHRLNKCKGTCPASYTRFTTIRKHEQQSSRQSDWRSDSRGDKNSLLRNIHLMSPLPFRLKKPLQQHPRQPPPSDSSESPAGQKADLPCHDPQDQPHSAGKPQVPTRLSSRHTMARLSHNSEPPLDRPAGLEDCTRAINNGNPVPYSDHGLDRNNNPQSELAAAHGDSESPRHFIPADYLESTEEFIRRRHDDKEKLLADQRRLKREQEEADIAARRHTGVIPTHHQFITNERFGDLLNIDDTAKRKSGLEMRPARAKFDFKAQTLKELPLQKGDVVYIYRQIDQNWYEGEHHGRVGIFPRTYIELLPPAEKAQPRKLAPVQVLEYGEAIAKFNFNGDTQVEMSFRKGERITLLRQVDENWYEGRIPGTSRQGIFPITYVDVLKRPLVKTPVDYIDLPYSSSPSRSATVSPQQPQAQQRRVTPDRSQPSLDLCSYQALYSYVPQNDDELELRDGDIVDVMEKCDDGWFVGTSRRTRQFGTFPGNYVKPLYL
B6: Nckap1l (Hem1), endogenous in murine DC2.4 cells (natural protein)
chain: MSLTSAYQLKLAEKLTILNDRGQGVLIRMYNIKKTCSDSKSKPPFLLEKSMESCLKYINKKFPNIDVRNSTQHLGPVHREKAEIIRFLTNYYQSFVDVMEFRDHVYELLNTIDACQCHFDINLNFDFTRSYLDLIVTYTSVILLLSRIEDRRILIGMYNCAHEMLHGHSDPSFARLGQMVLEYDHPLKKLTEEFGPHTKAVSGALLSLHFLFVRRNQGAEQWRSAQLLSLISSPPAMINPANSDTMACEYLSVEVMERWIIIGFLLCHGCLNSNSQCQKLWKLCLEGSLYITLIREDVLQVHKVTEDLFSSLKGYSKRVADIKESKEHAITNSGQFHCQRRQFLRTAVKELETVLNDEPGLLGPKALFAFMALSFIRDEVTWLVRHTENVTKTKTPEDYADSSIAELLFLLEEIRALVRRHIKVIQQYHLQYLARFDVLVLSDIIQNLSVCPEEESVIMSSFVSILSSLNLKQVDNEEKFDFSGLRLDWFRLQAYTSVSKAPLHLHENPDLAKVMNLIIFHSQMLDSVEKMLVETSDLSTFCFHLRTFEKMFATTLEEPTMLRYTIAFPLICAHFVHCVHEMCPEEYPHLKNHGLHHCNSFLEDLAKQTSNCVLEICAEQRNLNEQLLPKHCATTISKAKNKKSMKQRQAPRKGEPERDKPGAESHRKNRSLVTNMDKLHLNLTELALAMNHVHSFSVFEHTIFPSEYLSSHLEARLNRAIVTLAGYNATTQEILRPSELLAGVKAYISFIQSLAQFLGADASRIVRNALLQQTQPLDSSGEQTVTTLYTNWYLESLLRQASSGAIVLSPAMQAFISLPRDGEQNFSAEEFSDISEMRALAEILGPYGMKFLSENLMWHVTSQIVELKKLVVENMDILVQIRSNFSKPELMASLLPQLTGAENVLKRMTIIGVILSFRAMAQEGLQEVFSAHCPFLMGPIECLKEFVTPDTDIKVTLSVFELACAAGVSCDIDPALVAAIANLKADNSSPEEEYKVACLLLIFLAVSLPLLATDPSSFFSIEKDGYNNNIHCLTKAIIQVSAALFTLYNKNIETHLKEFLVVASVSLLQLGQETDKLKTRNRESISLLMRLVVEESPFLTLDMLESCFPYVLLRNAYREVSRAFYLNRLPASSH

These binders were tested against TgWIP^(PRR2 mut), HA-tagged (Toxoplasma gondii) (assay: affinity purification with mass spectrometry; HA-tagged TgWIP variants pulled down by the HA tag from lysates of DC2.4 cells infected 4 h at MOI 7; host partners by mass spectrometry; values are negative fold changes in peptide counts of the mutant immunoprecipitations relative to TgWIP^WT).

Binder	negative fold change in peptide counts relative to TgWIP^WT [fold]
B1	10
B2	4
B3	3
B4	3
B5	14
B6	3

Each binder was assayed against TgWIP^(PRR3 mut), HA-tagged (Toxoplasma gondii) in the same assay as above.

Binder	negative fold change in peptide counts relative to TgWIP^WT [fold]
B1	6
B2	9
B3	7
B4	7
B5	30
B6	4

These binders were tested against TgWIP^(WIRS mut), HA-tagged (Toxoplasma gondii) in the same assay as above.

Binder	negative fold change in peptide counts relative to TgWIP^WT [fold]
B1	2
B2	3
B3	1
B4	2
B5	2
B6	2

Each binder was assayed against TgWIP^Y150A/Y199A, HA-tagged (Toxoplasma gondii) in the same assay as above.

Binder	negative fold change in peptide counts relative to TgWIP^WT [fold]
B1	2
B2	1
B3	1
B4	2
B5	1
B6	1

— paper PMC12691643
